Assay results reported in patent US5695964.

Assays:
[1] = target: human fibrinogen (human) (UniProt P02671)
[2] = target: bovine thrombin (bovine) (UniProt P00735); settings: scale: relative activity
[3] = target: bovine thrombin (bovine) (UniProt P00735)
[4] = target: DIP-thrombin agarose; test: chromatography on DIP-thrombin agarose

Sequence of recombinant human urine thrombomodulin ruTM-Ala (receptor) (chain): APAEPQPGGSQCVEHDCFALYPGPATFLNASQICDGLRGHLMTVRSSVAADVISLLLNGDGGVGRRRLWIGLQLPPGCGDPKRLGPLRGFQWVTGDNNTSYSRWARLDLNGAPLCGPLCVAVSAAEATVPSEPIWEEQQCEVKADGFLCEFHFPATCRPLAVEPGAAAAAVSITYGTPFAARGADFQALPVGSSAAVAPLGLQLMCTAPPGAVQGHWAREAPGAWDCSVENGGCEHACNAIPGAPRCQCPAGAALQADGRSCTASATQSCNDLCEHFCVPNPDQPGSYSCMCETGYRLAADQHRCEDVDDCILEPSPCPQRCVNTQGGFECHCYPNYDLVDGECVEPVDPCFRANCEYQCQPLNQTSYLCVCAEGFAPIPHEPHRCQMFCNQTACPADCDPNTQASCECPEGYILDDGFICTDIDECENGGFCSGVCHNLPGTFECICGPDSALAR
Sequence of pKCR-TM-Val-originated recombinant human urine thrombomodulin (receptor) (chain): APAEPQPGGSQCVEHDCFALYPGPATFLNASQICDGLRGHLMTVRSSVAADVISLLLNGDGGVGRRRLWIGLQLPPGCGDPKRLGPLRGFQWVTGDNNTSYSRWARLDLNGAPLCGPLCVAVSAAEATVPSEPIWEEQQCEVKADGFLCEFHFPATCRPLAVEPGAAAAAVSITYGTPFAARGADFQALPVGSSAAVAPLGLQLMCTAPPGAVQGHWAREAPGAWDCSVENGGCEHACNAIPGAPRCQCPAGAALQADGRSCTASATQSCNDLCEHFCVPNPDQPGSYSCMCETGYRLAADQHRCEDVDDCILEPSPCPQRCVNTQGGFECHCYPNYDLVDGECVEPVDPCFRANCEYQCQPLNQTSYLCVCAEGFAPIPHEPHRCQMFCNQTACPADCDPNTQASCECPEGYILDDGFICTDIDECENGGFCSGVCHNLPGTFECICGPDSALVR
Sequence of mutation type recombinant human urine thrombomodulin in which 10 amino acid residues are deleted from the C-terminus of the human urine thrombomodulin (receptor) (chain): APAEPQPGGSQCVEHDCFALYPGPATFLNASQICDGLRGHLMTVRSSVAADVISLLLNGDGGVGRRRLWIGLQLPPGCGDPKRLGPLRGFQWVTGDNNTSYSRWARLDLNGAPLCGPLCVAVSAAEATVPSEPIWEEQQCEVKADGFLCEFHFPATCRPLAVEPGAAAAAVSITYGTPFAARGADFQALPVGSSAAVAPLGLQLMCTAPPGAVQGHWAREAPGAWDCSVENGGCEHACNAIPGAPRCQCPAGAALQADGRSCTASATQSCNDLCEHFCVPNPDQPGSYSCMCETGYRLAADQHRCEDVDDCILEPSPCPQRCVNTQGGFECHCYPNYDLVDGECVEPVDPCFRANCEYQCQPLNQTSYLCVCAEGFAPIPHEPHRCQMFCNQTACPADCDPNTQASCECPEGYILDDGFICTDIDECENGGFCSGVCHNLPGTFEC

Coagulation time [1]	Protein C activating ability (relative activity) [2]	Coagulation time [3]	adsorbed by thrombin [4]	Substance
37.8 s	–	–	–	bovine thrombin (from UniProt P00735) (enzyme)
–	1	–	–	human placenta thrombomodulin (from UniProt P07204) (receptor)
–	4.1	–	–	mutation type recombinant human urine thrombomodulin in which 10 amino acid residues are deleted from the C-terminus of the human urine thrombomodulin (receptor)
–	–	> 500 s	100%	pKCR-TM-Val-originated recombinant human urine thrombomodulin (receptor)
–	3.8	> 500 s	100%	recombinant human urine thrombomodulin ruTM-Ala (receptor)
